# Test results published in IntAct's records for PubMed 25910212.
# B1: Emerin (Homo sapiens), P50402 (parent)
# chain: MDNYADLSDTELTTLLRRYNIPHGPVVGSTRRLYEKKIFEYETQRRRLSPPSSSAASSYSFSDLNSTRGDADMYDLPKKEDALLYQSKGYNDDYYEESYFTTRTYGEPESAGPSRAVRQSVTSFPDADAFHHQVHDDDLLSSSEEECKDRERPMYGRDSAYQSITHYRPVSASRSSLDLSYYPTSSSTSFMSSSSSSSSWLTRRAIRPENRAPGAGLGQDRQVPLWGQLLLFLVFVIVLFFIYHFMQAEEGNPF
# partner: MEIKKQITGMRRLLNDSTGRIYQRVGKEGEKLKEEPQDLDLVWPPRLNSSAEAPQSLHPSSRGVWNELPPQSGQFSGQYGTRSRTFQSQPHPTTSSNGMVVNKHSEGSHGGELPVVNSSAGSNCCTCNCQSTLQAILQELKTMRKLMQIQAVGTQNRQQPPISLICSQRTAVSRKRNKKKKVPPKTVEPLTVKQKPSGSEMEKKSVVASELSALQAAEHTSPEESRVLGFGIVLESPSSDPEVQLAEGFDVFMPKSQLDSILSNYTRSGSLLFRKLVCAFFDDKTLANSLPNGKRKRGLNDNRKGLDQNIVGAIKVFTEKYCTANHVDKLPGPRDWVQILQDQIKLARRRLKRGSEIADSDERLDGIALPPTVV
# B2: SWI/SNF-related matrix-associated actin-dependent regulator of chromatin subfamily A member 2 (Homo sapiens), P51531-1 (parent)
# chain: MSTPTDPGAMPHPGPSPGPGPSPGPILGPSPGPGPSPGSVHSMMGPSPGPPSVSHPMPTMGSTDFPQEGMHQMHKPIDGIHDKGIVEDIHCGSMKGTGMRPPHPGMGPPQSPMDQHSQGYMSPHPSPLGAPEHVSSPMSGGGPTPPQMPPSQPGALIPGDPQAMSQPNRGPSPFSPVQLHQLRAQILAYKMLARGQPLPETLQLAVQGKRTLPGLQQQQQQQQQQQQQQQQQQQQQQQPQQQPPQPQTQQQQQPALVNYNRPSGPGPELSGPSTPQKLPVPAPGGRPSPAPPAAAQPPAAAVPGPSVPQPAPGQPSPVLQLQQKQSRISPIQKPQGLDPVEILQEREYRLQARIAHRIQELENLPGSLPPDLRTKATVELKALRLLNFQRQLRQEVVACMRRDTTLETALNSKAYKRSKRQTLREARMTEKLEKQQKIEQERKRRQKHQEYLNSILQHAKDFKEYHRSVAGKIQKLSKAVATWHANTEREQKKETERIEKERMRRLMAEDEEGYRKLIDQKKDRRLAYLLQQTDEYVANLTNLVWEHKQAQAAKEKKKRRRRKKKAEENAEGGESALGPDGEPIDESSQMSDLPVKVTHTETGKVLFGPEAPKASQLDAWLEMNPGYEVAPRSDSEESDSDYEEEDEEEESSRQETEEKILLDPNSEEVSEKDAKQIIETAKQDVDDEYSMQYSARGSQSYYTVAHAISERVEKQSALLINGTLKHYQLQGLEWMVSLYNNNLNGILADEMGLGKTIQTIALITYLMEHKRLNGPYLIIVPLSTLSNWTYEFDKWAPSVVKISYKGTPAMRRSLVPQLRSGKFNVLLTTYEYIIKDKHILAKIRWKYMIVDEGHRMKNHHCKLTQVLNTHYVAPRRILLTGTPLQNKLPELWALLNFLLPTIFKSCSTFEQWFNAPFAMTGERVDLNEEETILIIRRLHKVLRPFLLRRLKKEVESQLPEKVEYVIKCDMSALQKILYRHMQAKGILLTDGSEKDKKGKGGAKTLMNTIMQLRKICNHPYMFQHIEESFAEHLGYSNGVINGAELYRASGKFELLDRILPKLRATNHRVLLFCQMTSLMTIMEDYFAFRNFLYLRLDGTTKSEDRAALLKKFNEPGSQYFIFLLSTRAGGLGLNLQAADTVVIFDSDWNPHQDLQAQDRAHRIGQQNEVRVLRLCTVNSVEEKILAAAKYKLNVDQKVIQAGMFDQKSSSHERRAFLQAILEHEEENEEEDEVPDDETLNQMIARREEEFDLFMRMDMDRRREDARNPKRKPRLMEEDELPSWIIKDDAEVERLTCEEEEEKIFGRGSRQRRDVDYSDALTEKQWLRAIEDGNLEEMEEEVRLKKRKRRRNVDKDPAKEDVEKAKKRRGRPPAEKLSPNPPKLTKQMNAIIDTVINYKDRCNVEKVPSNSQLEIEGNSSGRQLSEVFIQLPSRKELPEYYELIRKPVDFKKIKERIRNHKYRSLGDLEKDVMLLCHNAQTFNLEGSQIYEDSIVLQSVFKSARQKIAKEEESEDESNEEEEEEDEEESESEAKSVKVKIKLNKKDDKGRDKGKGKKRPNRGKAKPVVSDFDSDEEQDEREQSEGSGTDDE
# partner: B1 partner
# B3: Emerin (Homo sapiens), P50402 (parent)
# chain: B1 chain
# partner: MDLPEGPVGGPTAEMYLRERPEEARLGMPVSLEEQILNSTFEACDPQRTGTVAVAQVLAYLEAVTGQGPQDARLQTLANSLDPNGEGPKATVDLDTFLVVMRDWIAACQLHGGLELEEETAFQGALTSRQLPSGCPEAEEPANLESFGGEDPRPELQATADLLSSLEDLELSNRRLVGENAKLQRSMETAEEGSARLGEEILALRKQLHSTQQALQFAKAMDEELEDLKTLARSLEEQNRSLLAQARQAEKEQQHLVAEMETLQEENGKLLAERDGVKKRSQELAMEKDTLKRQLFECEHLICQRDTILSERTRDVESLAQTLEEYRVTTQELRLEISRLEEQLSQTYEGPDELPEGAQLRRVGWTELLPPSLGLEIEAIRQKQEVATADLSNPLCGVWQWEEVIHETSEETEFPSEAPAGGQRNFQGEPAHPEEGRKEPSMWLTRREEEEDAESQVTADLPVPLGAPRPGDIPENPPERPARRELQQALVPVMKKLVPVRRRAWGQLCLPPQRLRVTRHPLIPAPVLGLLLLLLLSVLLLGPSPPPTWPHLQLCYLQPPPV
# B4: U4/U6 small nuclear ribonucleoprotein Prp31 (Homo sapiens), Q8WWY3 (parent)
# chain: MSLADELLADLEEAAEEEEGGSYGEEEEEPAIEDVQEETQLDLSGDSVKTIAKLWDSKMFAEIMMKIEEYISKQAKASEVMGPVEAAPEYRVIVDANNLTVEIENELNIIHKFIRDKYSKRFPELESLVPNALDYIRTVKELGNSLDKCKNNENLQQILTNATIMVVSVTASTTQGQQLSEEELERLEEACDMALELNASKHRIYEYVESRMSFIAPNLSIIIGASTAAKIMGVAGGLTNLSKMPACNIMLLGAQRKTLSGFSSTSVLPHTGYIYHSDIVQSLPPDLRRKAARLVAAKCTLAARVDSFHESTEGKVGYELKDEIERKFDKWQEPPPVKQVKPLPAPLDGQRKKRGGRRYRKMKERLGLTEIRKQANRMSFGEIEEDAYQEDLGFSLGHLGKSGSGRVRQTQVNEATKARISKTLQRTLQKQSVVYGGKSTIRDRSSGTASSVAFTPLQGLEIVNPQAAEKKVAEANQKYFSSMAEFLKVKGEKSGLMST
# partner: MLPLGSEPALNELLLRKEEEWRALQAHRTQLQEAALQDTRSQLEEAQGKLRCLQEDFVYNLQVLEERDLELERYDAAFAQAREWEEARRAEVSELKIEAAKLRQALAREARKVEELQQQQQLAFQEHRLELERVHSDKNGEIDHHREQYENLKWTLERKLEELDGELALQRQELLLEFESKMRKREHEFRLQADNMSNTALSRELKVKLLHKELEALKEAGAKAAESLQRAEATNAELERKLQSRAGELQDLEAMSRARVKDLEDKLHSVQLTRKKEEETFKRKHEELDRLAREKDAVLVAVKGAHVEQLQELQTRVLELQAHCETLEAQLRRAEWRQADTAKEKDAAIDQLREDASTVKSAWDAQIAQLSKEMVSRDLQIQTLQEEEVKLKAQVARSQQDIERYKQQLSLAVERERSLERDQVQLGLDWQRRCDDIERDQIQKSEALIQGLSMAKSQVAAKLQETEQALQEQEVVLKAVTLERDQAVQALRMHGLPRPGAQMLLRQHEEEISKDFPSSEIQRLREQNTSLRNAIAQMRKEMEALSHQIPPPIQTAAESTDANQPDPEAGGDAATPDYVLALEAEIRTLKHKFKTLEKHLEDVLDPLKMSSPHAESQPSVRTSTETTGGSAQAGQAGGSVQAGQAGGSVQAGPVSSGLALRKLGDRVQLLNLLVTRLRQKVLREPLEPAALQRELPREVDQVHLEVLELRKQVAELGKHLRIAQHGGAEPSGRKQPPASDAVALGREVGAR
# Variants of: B1
# Settings: with BEND7, Q8N7W2-2
row,effect of a mutation on the interaction,Variant
1,with no effect,MDNYADLSDTELTTLLRRYNIPHGPVVGSTRRLYEKKIFEYETQRRRLSPPSSSAASSYSFSDLNSTRGDAVMYDLPKKEDALLYQSKGYNDDYYEESYFTTRTYGEPESAGPSRAVRQSVTSFPDADAFHHQVHDDDLLSSSEEECKDRERPMYGRDSAYQSITHYRPVSASRSSLDLSYYPTSSSTSFMSSSSSSSSWLTRRAIRPENRAPGAGLGQDRQVPLWGQLLLFLVFVIVLFFIYHFMQAEEGNPF [D72V]

# Variants of: B2
# Settings: with BEND7, Q8N7W2-2
row,effect of a mutation on the interaction,Variant
1,with no effect,D1546E

# Variants of: B2
# Settings: with BEND7, Q8N7W2-2
# Remark: another data set of the same source
row,effect of a mutation on the interaction,Variant
1,with no effect,D1546E

# Variants of: B3
# Settings: with kash5_human KASH5, Q8N6L0
row,effect of a mutation on the interaction,Variant
1,with no effect,MDNYADLSDTELTTLLRRYNIPHGPVVGSTRRLYEKKIFEYETQRRRLSPPSSSAASSYSFSDLNSTRGDADMYDLPKKEDALLYQSKGYNDDYYEESYFTTRTYGEPESAGPSRAVRQSVTSFPDADAFHHQVHDDDLLSSSEEECKDRERPMYGRDSAYQSITHYRPVSASRSSLDLSYYTTSSSTSFMSSSSSSSSWLTRRAIRPENRAPGAGLGQDRQVPLWGQLLLFLVFVIVLFFIYHFMQAEEGNPF [P183T]
2,with no effect,MDNYADLSDTELTTLLRRYNIPHGPVVGSTRRLYEKKIFEYETQRRRLSPPSSSAASSYSFSDLNSTRGDADMYDLPKKEDALLYQSKGYNDDYYEESYFTTRTYGEPESAGPSRAVRQSVTSFPDADAFHHQVHDDDLLSSSEEECKDRERPMYGRDSAYQSITHYRPVSASRSSLDLSYYHTSSSTSFMSSSSSSSSWLTRRAIRPENRAPGAGLGQDRQVPLWGQLLLFLVFVIVLFFIYHFMQAEEGNPF [P183H]

# Variants of: B4
# Settings: with CCDC57, Q2TAC2-2
row,effect of a mutation on the interaction,Variant
1,with no effect,MSLADELLADLEEAAEEEEGGSYGEEEEEPAIEDVQEETQLDLSGDSVKTIAKLWDSKMFAEIMMKIEEYISKQAKASEVMGPVEAAPEYRVIVDANNLTVEIENEVNIIHKFIRDKYSKRFPELESLVPNALDYIRTVKELGNSLDKCKNNENLQQILTNATIMVVSVTASTTQGQQLSEEELERLEEACDMALELNASKHRIYEYVESRMSFIAPNLSIIIGASTAAKIMGVAGGLTNLSKMPACNIMLLGAQRKTLSGFSSTSVLPHTGYIYHSDIVQSLPPDLRRKAARLVAAKCTLAARVDSFHESTEGKVGYELKDEIERKFDKWQEPPPVKQVKPLPAPLDGQRKKRGGRRYRKMKERLGLTEIRKQANRMSFGEIEEDAYQEDLGFSLGHLGKSGSGRVRQTQVNEATKARISKTLQRTLQKQSVVYGGKSTIRDRSSGTASSVAFTPLQGLEIVNPQAAEKKVAEANQKYFSSMAEFLKVKGEKSGLMST [L107V]
